The target in the assay is T1, shed CA 125/O772P polypeptide (human, UniProt Q8WXI7 1-14401, limits assumed).
T1 construct: OVCAR-3 conditioned medium in the western blot; also called high molecular weight species in OVCAR-3 supernatant
Put plainly: western blot of OVCAR-3 conditioned media (Time 0, 1 hour, 6 hours, Day 1, Day 2, Day 3), chemiluminescence. A general note: A western blot detects proteins with antibodies after separation by electrophoresis.

B1: monoclonal antibody 368.1 (antibody, V domains shown)
VH: EVQLQQSGPELVRTGASVKISCKASGYSFTGFYMHWVKQSLGKSLEWIGYVSCYTGATTYTQKFKGKATFTVDTSSSTAYMQLNSLTSEDSAVYYCAREGDYYSMDFWGQGTSVTVSS
VL: DVVMTQTPLSLPVSLGDQASISCRSSQSLERTNGNTYLHWYLQKPGQSPKLLIYKVSSRFSGVPDRFSGSGSGTDFTLKISRVEAEDLGIYFCSQTTHGPPTCGGGTKLEIK
notes: Murine hybridoma antibody
For the molecule B1, the binding result is recorded as “no binding (tested: Day 3 conditioned medium)”.

Values taken from patent US20050064518A1 (PURDUE PHARMA L P, published 2005).
